Substitutions are numbered along the chain they refer to.
How the values were obtained:
[1] = target: the molecule itself; assay: SEC; data not shown; Superdex 75 10/300 GL, 200 mM NaCl, 50 mM Tris-HCl pH 7.5, 1% glycerol; 200 ul of about 0.2 mg/ml YbaBHi; mass from a calibration curve of standards
[2] = target: T1, YbaBEc (Escherichia coli, UniProt P0A8B5 1-109); assay: EMSA; first step, n=1.93; EMSA: 100 pM biotin-DNA, 50 mM Tris-HCl pH 7.5, 1 mM DTT, protease inhibitor 8 ul/ml, phosphatase inhibitor 2 ul/ml, 10% glycerol, no added salt stated, 20 min, room temperature; details: protein: recombinant; tags: pET200-TOPO vector tag, His-Trap purified; chain copies: 2; label: 5' biotin on strand 1; blunt
T1 sequence: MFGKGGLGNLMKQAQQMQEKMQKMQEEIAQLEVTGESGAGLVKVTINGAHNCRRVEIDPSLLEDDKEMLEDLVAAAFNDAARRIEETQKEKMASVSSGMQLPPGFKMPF

[3] = target: T2, YbaBHi (Haemophilus influenzae, UniProt P44711 1-109); assay: EMSA; first step, apparent monomer-equivalent; EMSA: 100 pM biotin-DNA, 50 mM Tris-HCl pH 7.5, 1 mM DTT, protease inhibitor 8 ul/ml, phosphatase inhibitor 2 ul/ml, 10% glycerol, no added salt stated, 20 min, room temperature; details: protein: recombinant; tags: pET15b vector tag, His-Trap purified; chain copies: 2; label: 5' biotin on strand 1; blunt
[4] = target: T1, YbaBEc; assay: as above; details: protein: recombinant; tags: pET200-TOPO vector tag, His-Trap purified; chain copies: 2; label: 5' biotin on strand 1; blunt
[5] = target: T2, YbaBHi; assay: EMSA; first step, n=2.09; EMSA: 100 pM biotin-DNA, 50 mM Tris-HCl pH 7.5, 1 mM DTT, protease inhibitor 8 ul/ml, phosphatase inhibitor 2 ul/ml, 10% glycerol, no added salt stated, 20 min, room temperature; details: protein: recombinant; tags: pET15b vector tag, His-Trap purified; chain copies: 2; label: 5' biotin on strand 1; blunt
[6] = target: T3, EbfC (Borrelia burgdorferi, UniProt O51418 1-99); assay: EMSA; specific plus nonspecific complex; EMSA: 100 pM biotin-DNA, 50 mM Tris-HCl pH 7.5, 1 mM DTT, protease inhibitor 8 ul/ml, phosphatase inhibitor 2 ul/ml, 10% glycerol, no added salt stated, 20 min, room temperature; details: protein: recombinant; tags: His-Trap purified (His tag implied); chain copies: 2; label: 5' biotin on strand 1; blunt
T3 sequence: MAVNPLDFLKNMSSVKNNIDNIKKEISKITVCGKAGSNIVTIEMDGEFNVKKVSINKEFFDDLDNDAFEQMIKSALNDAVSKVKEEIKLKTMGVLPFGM

[7] = target: T2, YbaBHi; assay: EMSA; protein at half its Kd; EMSA: 100 pM biotin-DNA, 50 mM Tris-HCl pH 7.5, 1 mM DTT, protease inhibitor 8 ul/ml, phosphatase inhibitor 2 ul/ml, 10% glycerol, no added salt stated, 20 min, room temperature; details: protein: recombinant; tags: pET15b vector tag, His-Trap purified; chain copies: 2; label: 5' biotin on strand 1; blunt
[8] = target: T1, YbaBEc; assay: as above; details: protein: recombinant; tags: pET200-TOPO vector tag, His-Trap purified; chain copies: 2; label: 5' biotin on strand 1; blunt
[9] = target: T2, YbaBHi; assay: EMSA; no detectable effect of mutation; EMSA: 100 pM biotin-DNA, 50 mM Tris-HCl pH 7.5, 1 mM DTT, protease inhibitor 8 ul/ml, phosphatase inhibitor 2 ul/ml, 10% glycerol, no added salt stated, 20 min, room temperature; details: protein: recombinant; tags: pET15b vector tag, His-Trap purified; chain copies: 2; label: 5' biotin on strand 1; blunt
[10] = target: T1, YbaBEc; assay: as above; details: protein: recombinant; tags: pET200-TOPO vector tag, His-Trap purified; chain copies: 2; label: 5' biotin on strand 1; blunt

B1: Haemophilus influenzae YbaB (natural protein, H. influenzae, UniProt P44711 1-109, looked up)
chain: MFGKGGLGGLMKQAQQMQEKMQKMQEEIAQLEVTGESGAGLVKITINGAHNCRRIDIDPSLMEDDKEMLEDLIAAAFNDAVRRAEELQKEKMASVTAGMPLPPGMKFPF
notes: Purified on a His-Trap column; removal of the tag is not mentioned; also called YbaBHi; HI0442; source: E. coli Rosetta pLysS, purified (His-Trap HP)
B1 was tested, and the “stoichiometry N” value [1] was 2.

B2: b-WT (dsDNA)
DNA 1: TTGTAATGAGTAGTGCATTTGCAATGGAGAGATTTTGGGGAGTTGTTTAAAATTACATTTGCGTTTTGTTAAAATGTAACAGCTGAATGTAACAAAATTATATATTTAAATCTTTGAAATATTGC
DNA 2: GCAATATTTCAAAGATTTAAATATATAATTTTGTTACATTCAGCTGTTACATTTTAACAAAACGCAAATGTAATTTTAAACAACTCCCCAAAATCTCTCCATTGCAAATGCACTACTCATTACAA
In the case of B2, the Ka [2] is reported as 1.7e+14 M-2, the Kd [3] is reported as 240 nM and the Kd [4] is reported as 77 nM. The Ka [5] was 1.7e+13 M-2.

B3: b-C2 (dsDNA)
DNA 1: B2 DNA 1 with T75C, G76A, T77C
DNA 2: B2 DNA 2 with A49G, C50T, A51G
B3: binds [6]; binds [7]; binds [8].

B4: b-C30 (dsDNA)
DNA 1: B2 DNA 1 with T75C, G76A, T77C, A94T
DNA 2: B2 DNA 2 with T32A, A49G, C50T, A51G
B4: binds [9]; binds [10].

B5: b-C40 (dsDNA)
DNA 1: B2 DNA 1 with T75C, G76A, T77C, A91G
DNA 2: B2 DNA 2 with T35C, A49G, C50T, A51G
B5: binds [9]; binds [10].

B6: b-C50 (dsDNA)
DNA 1: B2 DNA 1 with T75C, G76A, T77C, A92T
DNA 2: B2 DNA 2 with T34A, A49G, C50T, A51G
B6: binds [9]; binds [10].

B7: b-C20 (dsDNA)
DNA 1: B2 DNA 1 with T75C, G76A, T77C, C93A
DNA 2: B2 DNA 2 with G33T, A49G, C50T, A51G
B7: binds [9]; binds [10].
